Experimental data published in FireProtDB (doi:10.1016/j.jmb.2006.03.027).
“And” between values parts separate entries of the source, which are not always exact repeats. Equal entries are not always repeated.

Conditions: Saccharomyces cerevisiae (strain ATCC 204508 / S288c); pH 7; Thermal; CD; potassium phosphate 25 mM; reversible: Yes; whole UniProt chain shown

B1: GrpE protein homolog, mitochondrial wild type, P38523 (protein)
chain: MRAFSAATVRATTRKSFIPMAPRTPFVTPSFTKNVGSMRRMRFYSDEAKSEESKENNEDLTEEQSEIKKLESQLSAKTKEASELKDRLLRSVADFRNLQQVTKKDIQKAKDFALQKFAKDLLESVDNFGHALNAFKEEDLQKSKEISDLYTGVRMTRDVFENTLRKHGIEKLDPLGEPFDPNKHEATFELPQPDKEPGTVFHVQQLGFTLNDRVIRPAKVGIVKGEEN
  Tm: 53.2 °C and 52.5 °C and 52.4 °C
